{"source": "paper PMC7841792", "substrate": "C[C@H](O)C(=O)O", "experiment": "purified protein", "conditions": "20 mM HEPES pH 7.4, 50 μM Ampliflu Red, 0.1 U/mL HRP, mean ± SEM, n = 3, lactate enantiomer not given"}
{"protein": "lactate oxidase (LOX, EC 1.1.3.2) (Aerococcus viridans ATCC 11563 = CCUG 4311) (protein) MNNNDIEYNAPSEIKYIDVVNTYDLEEEASKVVPHGGFNYIAGASGDEWTKRANDRAWKHKLLYPRLAQDVEAPDTSTEILGHKIKAPFIMAPIAAHGLAHTTKEAGTARAVSEFGTIMSISAYSGATFEEISEGLNGGPRWFQIYMAKDDQQNRDILDEAKSDGATAIILTADSTVSGNRDRDVKNKFVYPFGMPIVQRYLRGTAEGMSLNNIYGASKQKISPRDIEEIAGHSGLPVFVKGIQHPEDADMAIKRGASGIWVSNHGARQLYEAPGSFDTLPAIAERVNKRVPIVFDSGVRRGEHVAKALASGADVVALGRPVLFGLALGGWQGAYSVLDYFQKDLTRVMQLTGSQNVEDLKGLDLFDNPYGYEY", "values": [{"measurement": "Km", "value": "1620 ± 480", "unit": "µM"}, {"measurement": "Vmax", "value": 22, "unit": "µmol/min/mg"}]}
